Tests used:
[1] = target: T1, peptide 5 (NLQIIRGNMYYENSYALAVLS)
T1 chain: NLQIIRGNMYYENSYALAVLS

[2] = target: HisTAG-EGFR^aa1-650, P00533
[3] = target: T2, peptide 1 (EVVLGNLEITYVQRNYDLSFL)
T2 chain: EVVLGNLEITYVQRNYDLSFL

[4] = target: T3, peptide 14 (GPDNCIQCAHYIDGPHCVKTC)
T3 chain: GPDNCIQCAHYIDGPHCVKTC

[5] = target: T4, peptide 4 (ENLQIIRGNMYYENSYALAVL)
T4 chain: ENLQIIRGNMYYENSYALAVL

[6] = target: T5, peptide 9 (PPLMLYNPTTYQMDVNPEGKY)
T5 chain: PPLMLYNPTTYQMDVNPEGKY

[7] = target: T6, peptide 11 (ATCVKKCPRNYVVTDHGSCVR)
T6 chain: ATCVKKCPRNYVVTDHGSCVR

[8] = target: T7, peptide 15 (MGENNTLVWKYADAGHVCHLC)
T7 chain: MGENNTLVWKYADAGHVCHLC

[9] = target: T8, peptide 2 (NLEITYVQRNYDLSFLKTIQE)
T8 chain: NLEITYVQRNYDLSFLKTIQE

[10] = target: T9, peptide 16 (VCHLCHPNCTYGCTGPGLEGC)
T9 chain: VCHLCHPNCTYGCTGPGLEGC

[11] = target: T10, peptide 13 (VIISGNKNLCYANTINWKKLF)
T10 chain: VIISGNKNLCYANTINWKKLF

[12] = target: HisTAG-ΔEGFR N-terminusY88A, P00533
[13] = target: T11, peptide 3 (FLKTIQEVAGYVLIALNTVER)
T11 chain: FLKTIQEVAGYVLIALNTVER

[14] = target: T12, peptide 10 (QMDVNPEGKYSFGATCVKK)
T12 chain: QMDVNPEGKYSFGATCVKK

[15] = target: T13, peptide 7 (NSYALAVLSNYDANKTGLKEL)
T13 chain: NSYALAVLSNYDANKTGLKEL

[16] = target: T14, mutant peptide 3 (FLKTIQEVAGAVLIALNTVER)
T14 chain: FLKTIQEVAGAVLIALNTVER

[17] = target: T15, peptide 6 (IRGNMYYENSYALAVLSNYDA)
T15 chain: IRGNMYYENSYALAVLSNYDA

[18] = target: T16, peptide 12 (SCVRACGADSYEMEEDGVRKC)
T16 chain: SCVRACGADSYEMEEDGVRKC

[19] = target: T17, peptide 8 (CKDTCPPLMLYNPTTYQMDVN)
T17 chain: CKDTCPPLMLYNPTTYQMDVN

B1: GST-MAN2A1-FER (protein)
chain: MKLSRQFTVFGSAIFCVVIFSLYLMLDRGHLDYPRNPRREGSFPQGQLSMLQEKIDHLERLLAENNEIISNIRDSVINLSESVEDGPKSSQSNFSQGAGSHLLPSQLSLSVDTADCLFASQSGSHNSDVQMLDVYSLISFDNPDGGVWKQGFDITYESNEWDTEPLQVFVVPHSHNDPGWLKTFNDYFRDKTQYIFNNMVLKLKEDSRRKFIWSEISYLSKWWDIIDIQKKDAVKSLIENGQLEIVTGGWVMPDEATPHYFALIDQLIEGHQWLENNIGVKPRSGWAIDPFGHSPTMAYLLNRAGLSHMLIQRVHYAVKKHFALHKTLEFFWRQNWDLGSVTDILCHMMPFYSYDIPHTCGPDPKICCQFDFKRLPGGRFGCPWGVPPETIHPGNVQSRARMLLDQYRKKSKLFRTKVLLAPLGDDFRYCEYTEWDLQFKNYQQLFDYMNSQSKFKVKIQFGTLSDFFDALDKADETQRDKGQSMFPVLSGDFFTYADRDDHYWSGYFTSRPFYKRMDRIMESHLRAAEILYYFALRQAHKYKINKFLSSSLYTALTEARRNLGLFQHHDAITGTAKDWVVVDYGTRLFHSLMVLEKIIGNSAFLLILKDKLTYDSYSPDTFLEMDLKQKSQDSLPQKNIIRLSAEPRYLVVYNPLEQDRISLVSVYVSSPTVQVFSASGKPVEVQVSAVWDTANTISETAYEGNFGEVYKGTLKDKTSVAVKTCKEDLPQELKIKFLQEAKILKQYDHPNIVKLIGVCTQRQPVYIIMELVSGGDFLTFLRRKKDELKLKQLVKFSLDAAAGMLYLESKNCIHRDLAARNCLVGENNVLKISDFGMSRQEDGGVYSSSGLKQIPIKWTAPEALNYGRYSSESDVWSFGILLWETFSLGVCPYPGMTNQQAREQVERGYRMSAPQHCPEDISKIMMKCWDYKPENRPKFSELQKELTIIKRKLT
[1]
  phosphorylation assay on synthetic peptide: only the sequence corresponding to FLKTIQEVAGYVLIALNTVER (peptide 3) in EGFR was phosphorylated by GST-MAN2A1-FER
[2]
  in vitro kinase assay, phosphorylation of the substrate: GST-MAN2A1-FER phosphorylated the recombinant HisTAG-EGFR^aa1-650 in an ATP dosage-dependent manner
[3]
  phosphorylation assay on synthetic peptide: only the sequence corresponding to FLKTIQEVAGYVLIALNTVER (peptide 3) in EGFR was phosphorylated by GST-MAN2A1-FER
[4]
  phosphorylation assay on synthetic peptide: only the sequence corresponding to FLKTIQEVAGYVLIALNTVER (peptide 3) in EGFR was phosphorylated by GST-MAN2A1-FER
[5]
  phosphorylation assay on synthetic peptide: only the sequence corresponding to FLKTIQEVAGYVLIALNTVER (peptide 3) in EGFR was phosphorylated by GST-MAN2A1-FER
[6]
  phosphorylation assay on synthetic peptide: only the sequence corresponding to FLKTIQEVAGYVLIALNTVER (peptide 3) in EGFR was phosphorylated by GST-MAN2A1-FER
[7]
  phosphorylation assay on synthetic peptide: only the sequence corresponding to FLKTIQEVAGYVLIALNTVER (peptide 3) in EGFR was phosphorylated by GST-MAN2A1-FER
[8]
  phosphorylation assay on synthetic peptide: only the sequence corresponding to FLKTIQEVAGYVLIALNTVER (peptide 3) in EGFR was phosphorylated by GST-MAN2A1-FER
[9]
  phosphorylation assay on synthetic peptide: only the sequence corresponding to FLKTIQEVAGYVLIALNTVER (peptide 3) in EGFR was phosphorylated by GST-MAN2A1-FER
[10]
  phosphorylation assay on synthetic peptide: only the sequence corresponding to FLKTIQEVAGYVLIALNTVER (peptide 3) in EGFR was phosphorylated by GST-MAN2A1-FER
[11]
  phosphorylation assay on synthetic peptide: only the sequence corresponding to FLKTIQEVAGYVLIALNTVER (peptide 3) in EGFR was phosphorylated by GST-MAN2A1-FER
[12]
  in vitro kinase assay, phosphorylation of the substrate: No phosphorylation was found when Y88 was mutated to alanine in EGFR N-terminus
[13]
  phosphorylation assay on synthetic peptide: only the sequence corresponding to FLKTIQEVAGYVLIALNTVER (peptide 3) in EGFR was phosphorylated by GST-MAN2A1-FER
  phosphorylation of HisTAG-ΔEGFR^aa1-650 by GST-MAN2A1-FER with an excessive amount of peptide: peptide 3, but not the mutant counterpart, partially blocked the phosphorylation of EGFR N-terminus by GST-MAN2A1-FER
[14]
  phosphorylation assay on synthetic peptide: only the sequence corresponding to FLKTIQEVAGYVLIALNTVER (peptide 3) in EGFR was phosphorylated by GST-MAN2A1-FER
[15]
  phosphorylation assay on synthetic peptide: only the sequence corresponding to FLKTIQEVAGYVLIALNTVER (peptide 3) in EGFR was phosphorylated by GST-MAN2A1-FER
[16]
  phosphorylation assay on synthetic peptide: mutant peptide was not phosphorylated by the fusion protein
  phosphorylation of HisTAG-ΔEGFR^aa1-650 by GST-MAN2A1-FER with an excessive amount of peptide: peptide 3, but not the mutant counterpart, partially blocked the phosphorylation of EGFR N-terminus by GST-MAN2A1-FER
[17]
  phosphorylation assay on synthetic peptide: only the sequence corresponding to FLKTIQEVAGYVLIALNTVER (peptide 3) in EGFR was phosphorylated by GST-MAN2A1-FER
[18]
  phosphorylation assay on synthetic peptide: only the sequence corresponding to FLKTIQEVAGYVLIALNTVER (peptide 3) in EGFR was phosphorylated by GST-MAN2A1-FER
[19]
  phosphorylation assay on synthetic peptide: only the sequence corresponding to FLKTIQEVAGYVLIALNTVER (peptide 3) in EGFR was phosphorylated by GST-MAN2A1-FER
